According to patent US4790988A, “Method and compositions for the treatment of thrombotic episodes” (University of Florida, priority 1987, dated 1988):

System: thrombus in the circumflex coronary artery
Test: Electrically induced coronary thrombus model in dogs, restoration of blood flow
Type: in vivo
Conditions: infused into a peripheral vein for 30 minutes at 10 microgram/kg/min; mongrel dogs
Procedure: A thrombus was introduced into the circumflex coronary artery of mongrel dogs by electrical current. Blood flow in the artery was measured by a commercially available electromagnetic flow probe. After stable blood flow for five minutes without electrical current, homogeneous recombinant human tissue plasminogen activator (Genentech) was infused into a peripheral vein for 30 minutes at a dose of 10 microgram/kg/min. In another cohort of animals, pentapeptide 6A was infused intra-arterially proximal to the occlusion at a dose of 5 micromoles/min for 20 min.

B1: tissue plasminogen activator: homogeneous recombinant human tissue plasminogen activator (Genentech) (protein, UniProt P00750 36-562, looked up)
Tissue-type plasminogen …: SYQVICRDEKTQMIYQQHQSWLRPVLRSNRVEYCWCNSGRAQCHSVPVKSCSEPRCFNGGTCQQALYFSDFVCQCPEGFAGKCCEIDTRATCYEDQGISYRGTWSTAESGAECTNWNSSALAQKPYSGRRPDAIRLGLGNHNYCRNPDRDSKPWCYVFKAGKYSSEFCSTPACSEGNSDCYFGNGSAYRGTHSLTESGASCLPWNSMILIGKVYTAQNPSAQALGLGKHNYCRNPDGDAKPWCHVLKNRRLTWEYCDVPSCSTCGLRQYSQPQFRIKGGLFADIASHPWQAAIFAKHRRSPGERFLCGGILISSCWILSAAHCFQERFPPHHLTVILGRTYRVVPGEEEQKFEVEKYIVHKEFDDDTYDNDIALLQLKSDSSRCAQESSVVRTVCLPPADLQLPDWTECELSGYGKHEALSPFYSERLKEAHVRLYPSSRCTSQHLLNRTVTDNMLCAGDTRSGGPQANLHDACQGDSGGPLVCLNDGRMTLVGIISWGLGCGQKDVPGVYTKVTNYLDWIRDNMRP
animals with coronary blood flow restored: 5 of 7
duration reflow persisted: 20.0 ± 10.9 min
peak restored coronary blood flow (mean±SD): 22 ± 12 mL/min
time to flow restoration: 12.3 ± 9.1 min
